The results in this text go back to patent US20110014656A1.

Experiment [1] has as its target T1, human IL-17 receptor (IL-17RA) on transfected cells (human), Q96F46. Description: saturation binding, iodinated cytokine on transfected BHK cells; saturation binding; fold comparison with the other Kd values of Table 1. Particulars: remark: other sources report otherwise.
The target of experiment [2] is T1, human IL-17 receptor (IL-17RA) on …. The experiment can be described thus: saturation binding, iodinated cytokine on transfected BHK cells; saturation binding, iodinated hIL-17F on hIL-17RA BHK cells. The following applies: remark: other sources report otherwise.

T1 sequence (Q96F46 33-320 limits assumed): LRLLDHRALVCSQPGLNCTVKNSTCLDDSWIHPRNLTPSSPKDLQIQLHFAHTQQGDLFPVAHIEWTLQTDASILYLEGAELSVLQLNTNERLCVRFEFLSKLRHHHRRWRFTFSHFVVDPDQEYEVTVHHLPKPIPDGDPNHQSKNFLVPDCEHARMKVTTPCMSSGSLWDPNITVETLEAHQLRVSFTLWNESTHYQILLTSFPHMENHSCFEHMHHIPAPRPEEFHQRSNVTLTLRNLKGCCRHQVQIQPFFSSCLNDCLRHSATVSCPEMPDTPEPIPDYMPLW

B1: human IL-17F, Q96PD4 31-163 (ligand)
chain: RKIPKVGHTFFQKPESCPPVPGGSMKLDIGIINENQRVSMSRNIESRSTSPWNYTVTWDPNRYPSEVVQAQCRNLGCINAQGKEDISMNSVPIQQETLVVRRKHQGCSVSFQLEKVLVTVGCTCVTPVIHHVQ
As a reminder, the Kd is the free concentration of one partner at which half of the binding sites on the other are occupied at equilibrium, for simple one-to-one binding. As for B1, in experiment [1], the fold lower affinity relative to the other affinities measured stood at 1000 fold. Besides, the Kd in experiment [2] worked out at 1.5 µM.
